{"source": "the nanobody polyreactivity screen of Harvey et al. (2022)", "data": [{"experiment": "yeast display, Sf9 membrane polyspecificity reagent, FACS + sequencing; frameworks hold sequencing errors", "summary_of_the_method": "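In a synthetic yeast display library (Saccharomyces cerevisiae BJ5465), nanobody expression was induced with galactose for 36–48 hours. FACS gates were set low and high (top ~1%) using anti-HA fluorescence for expression and streptavidin fluorescence for binding of the Sf9 membrane reagent. Each polyreactivity label is drawn from the gate of origin.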", "values": [{"sequence": "LVQLVESGGGLVQAGGSLRLSCAASGITLARNAMGWYRQAPGKEWELVAAITWSGGTTYYADSVKGRFTISRDNAKNTVYLQMNSLKPEDTAVYYCAASAKLHYYRTYRYNYWGQGTQVTVSS", "polyreactivity (PSR sort gate)": "high polyreactivity"}, {"sequence": "LVQLVESGGGLVQAGGSLRLSCAASGSTFANNAMGWYRQAPGKERELVASITTDGSTNYADSVKGRFTISRDNAKNTVYLQMNSLKPEDTAVYYCAAAYQKSPITPKMDYWGQGTQVTVSS", "polyreactivity (PSR sort gate)": "low polyreactivity"}, {"sequence": "LVQLVESGGGLVQAGGSLRLSCAASGSTFDYYAMGWYRQAPGQERELVAAISGSGDRTYYADSVKGRFTISRDNAKNTVYLQMNSLKPEDTAVYYCAKYGRTRFYYWGQGTQVTVSS", "polyreactivity (PSR sort gate)": "high polyreactivity"}, {"sequence": "LVQLVESGGRLVQAGGSLRLSCAASGRTFPAYTMGWYRQSPGKERDLVAANYSSGGTTYYADSVKGRFTISRDNAKNTVYLQIYSINPEDNAVYYCNAYLGYYYYYLDALIGYDYWGQGTQVTVSS", "polyreactivity (PSR sort gate)": "low polyreactivity"}, {"sequence": "PLQLVESGGGLVQAGGSLRLSCAASGIIFGRYTMGWYRQAPGKERELFAAITSSGITYYADSVNGRFTISRDNAKNTVYLQLNSLKPEDTAVYYCNADYSIPGYYWPYDYWGLGTQVTVSS", "polyreactivity (PSR sort gate)": "low polyreactivity"}, {"sequence": "PVQLQESGGGLVQAGGSLRLSCAESGNIFDADIMGWYRQAPGKERELVDCIADGGSTNYADSVKGSFTISRDNAKITVYLQMNSLKPEDTAVYYCAAIAYPDIPTCFDYDSDYFFRGQGTQVTVSS", "polyreactivity (PSR sort gate)": "low polyreactivity"}, {"sequence": "PVQLVESGGGIVQAGGSLRLSCAASGSTFVGKAMGWSRQAPGKQREMFAAISRTGGSPYYADSVKGRFSISRDNAKNSVYLQMISLKPEDTAVYYCAEVYGGPYGELDYWGHGTQVTVSS", "polyreactivity (PSR sort gate)": "high polyreactivity"}, {"sequence": "PVQLVESGGGLVQAGASLRLSCAASGNTFIENAKGSYRQAPGKERELVADIDTGGSTYYADSVKGRFTISRDNAKNTVYLQMNRLKPEDTADYYCTAVGLYLYRYKFGYLGKIGPGYDYWGQGTQVTVSS", "polyreactivity (PSR sort gate)": "low polyreactivity"}, {"sequence": "PVQLVESGGGLVQAGGILRLSCAACGRIFQRNAMGWYRQAPGKERELVATITSRGGSTYYADSVKGRFTISRDNAKNTVYLQMNSLKPEDTAVYYCAADPRRYRGFGYVYGGFYYWGQGTQVTVSS", "polyreactivity (PSR sort gate)": "low polyreactivity"}, {"sequence": "PVQLVESGGGLVQAGGRLRLSCAASGIIFSDYAMGWYRQAPGKERELVAAIPGGGSTYYADSVKGRFTISRDNAKNTVYLQMNSLKPEDTAVYYCNADWARLWIRSTEVDYWGQGTQVTVSS", "polyreactivity (PSR sort gate)": "low polyreactivity"}, {"sequence": "PVQLVESGGGLVQAGGSHRVICAASGRIFYVDAMGWSTQAPGKERELVADMSRGGSTNYADSVKGRFTISRDNAKKTVYLQMNRLKPEDTSVYYCNTDGLWSAEYDYWGQGTQVTVSS", "polyreactivity (PSR sort gate)": "low polyreactivity"}, {"sequence": "PVQLVESGGGLVQAGGSLLLSCAASGRTFIYYAMGWYRQAPGKERELVAGISRHGGRTYYADSVKGRFTISRDNAKNTVYLQMNSLKPEDTAVYYCNAYPPSGHDYWGQGTQVTVSS", "polyreactivity (PSR sort gate)": "high polyreactivity"}, {"sequence": "PVQLVESGGGLVQAGGSLRLICAASALTFPPYSMGWYRQAPAKERELVAAISRNAGNTYYADSVKGRFTISRDTAKNTVYLQMNSLKPEDTAVYYCAAKRGTQGMYYWGQGTQVTVSS", "polyreactivity (PSR sort gate)": "high polyreactivity"}, {"sequence": "PVQLVESGGGLVQAGGSLRLSCAASGSIFCYYTMGWYRQAPGKERELVASIDYSGVSTYYADSVKGRFTISRDNAKNTVYLQMNSLKPEDTAVYDCNAVYYSWDGSTWEYGYWGQGTQVTVSS", "polyreactivity (PSR sort gate)": "low polyreactivity"}, {"sequence": "PVQLVESGGGLVQAGGSLRLSCAASGSIFDLNAMGWYRQAPGKERELVAAISSGGGTYYADSVKGRFTISLDNAKNTVYLQMNSLKPEDTAVYSCNRVTRGSYNYWGQGTQVTVSS", "polyreactivity (PSR sort gate)": "high polyreactivity"}, {"sequence": "PVQLVESGGGLVQAGGSLRLSCAASGSTFRRNVMGWYRQAPGKEREFVAAISYRTGSTYYADSVKGRFTISRDNAKNTVYLQMNSLKPEDTAVYYCAASSQWVGYYYWGQGTQVTVSS", "polyreactivity (PSR sort gate)": "high polyreactivity"}, {"sequence": "PVQLVESGGGLVQAGGSLRLSCAASGSTFTSNAMGWYRQAPGKERELVAAIDRNGGRTYYADSVNGRFTISRDNAKNTVYLQMNSMKPEDTEVYYCAVLSKYRRTFGSWGQGTLVTVSS", "polyreactivity (PSR sort gate)": "high polyreactivity"}, {"sequence": "PVQLVESGGGLVQAGGSLRLSCAGSGFTFYTNTMGWYIQAPGKERELVAAISSGGSTYADSVKVRYTISRDNAKNTVDLQMNSLKPEDTAVYYCARDFYYSLSGFDYWGQGTQVTVSS", "polyreactivity (PSR sort gate)": "low polyreactivity"}, {"sequence": "PVQLVESGGGLVQAGGSLRLSWAASGRIFVVNAMGWYRQAPGKEREFLASITRGASTYADSVKGRFTISRDNAKNTVYLQMNSLKPEDTAVYYCSDAKRPQVVRYDWTKLEYWGQGTQVTVSS", "polyreactivity (PSR sort gate)": "high polyreactivity"}, {"sequence": "PVQLVESGGVLVQAGGSLRLSCAASGITFWDKAMGWYRQPPGKERELVAAITSGNTDYADSVKGRFTISRDNAKNSVYLPMTSLIPEDTAVYYCGAELLVGGGVTVDYWGQGTQVTVSS", "polyreactivity (PSR sort gate)": "low polyreactivity"}, {"sequence": "QAELVESGGGLVQAGGSLRLSCAASGLTFRAYAMGWYRQAPGKERELVAAISWNGGSTYYADSVKGRFTISRDNAKNTVYLQMNSLKPEDTAVYYCNAYDYQYFYGYEYDYWGQGTQVTVSS", "polyreactivity (PSR sort gate)": "high polyreactivity"}, {"sequence": "QAQLKESGGSLVQAGGGLRLSCAASGYNSVGSVMGWYRQAPSKERELVASIDQGANTNYADSVKGRFTISRDNAKNNVYLQMNSLKPEDTAVYYCATETTYFLNYWGQGTQVTVSS", "polyreactivity (PSR sort gate)": "low polyreactivity"}, {"sequence": "QAQLQESGGSLVQAGGGLRLSCAASGYISVGSVMGWYRQAPSKERELVASIDQGANTNYADSVKGRFTISRDNAKNYVYLQMNSLKPEDTAVYYCATETTYILNYWGQGTQVTVSS", "polyreactivity (PSR sort gate)": "low polyreactivity"}, {"sequence": "QAQLQESGGSLVQAGGGLRLSCAASGYISVGSVMGWYRQAPSKERELVASIDQGANTNYADSVKGRFTISRNNAKNNVYLQMNSLKTEDTAVYYCATETTYILNYCGQGTQVTVSS", "polyreactivity (PSR sort gate)": "low polyreactivity"}, {"sequence": "QAQLVESGGGLVQAGGSLRLSCAASGRTFYYYTMGWYRQAPGKERELVAAISYSGGSTSYADSVKGRFTISRDNAKNTVYLQMNSLKPEDTAVYYCNARYKYYTQRRYHYDYWGQGTQVTVSS", "polyreactivity (PSR sort gate)": "high polyreactivity"}, {"sequence": "QAQLVESGGGLVQAGGSLRLSCAASGRTLAWYALGWYRQAPGKERELVADISSGGSTYYADSVKGRFTISRDNAKHTVYVQMNSLKPEDTAVYYCAARWRSWRYKDDYWGQGTQVTVSS", "polyreactivity (PSR sort gate)": "high polyreactivity"}, {"sequence": "QAQLVESGGGLVQAGGSLRLSCAASGRTSYRYVMGWYIQAPGKERELVAAISRGGRTYYADSVKGSFTISRDNAKYTVYLQMNSLNPEVTAVYYCNAAFGVYVATGDSFPRHKKFGFWGQGTQVTVSS", "polyreactivity (PSR sort gate)": "high polyreactivity"}, {"sequence": "QAQLVESGGGLVQAGGSLRLSSAATGIIFGRYAMGWYRQAPGKERELVAAISTSGGSTYYADSVKGRFTISRDNAKNTVYLQMNSLKAEDTAVYYCAVDLFYKYDWGQGTQVTVSS", "polyreactivity (PSR sort gate)": "high polyreactivity"}, {"sequence": "QDHLVESGGGIVQAGGSLRLSCAASGRTFHLNAIGWYRQAPGKARELVAAITNSGGRTSNADSVKGRFTISRDNAKNTVYLQMNSLKPQVTEVFFCNVEVTYSSGKYDYWGQGTQVTVSS", "polyreactivity (PSR sort gate)": "low polyreactivity"}, {"sequence": "QDHLVESGGGLVQAGGSLRLSCAASGRIFDPYAMGWYRQAPGKERELVARITWRGGRTYYADSVKGRFTISLDNAKNTVYLQMNSLKPEDTAVYYCNAVFYYRYYGAYDYWGQGTQVTVSS", "polyreactivity (PSR sort gate)": "high polyreactivity"}, {"sequence": "QDHLVESGGGLVQAGGSLRLSCAASGRTVGIYAMGWYRQAPGKVRELVASISWSGGRTYYADSVKGRFTISRENAKNTVYLQMNSLKPEDTAVYYCAAYGVYYPRSWLYFDWYGYCGQGTQVTVSS", "polyreactivity (PSR sort gate)": "high polyreactivity"}, {"sequence": "QDHLVESGGGLVQAGGSLRLSCAASGSTFYFYAMGWYREAPGKERELVAVISSGGRTYYADSVKGRFTISRDNAKNSVYLQMNSLKPVDTGVYYGAASWPSSLTFYYWGHGTQVTVSS", "polyreactivity (PSR sort gate)": "low polyreactivity"}, {"sequence": "QDHLVESGGGLVQAGGSLRLSCAAYGRTFESYAMGRYRHAPGKERELVAAISYSGGSTYYADSVKGRFTISRDNAKNTVYLQMNSLKPEDTAVYYCAVRWRYKYDYWGQGTQVTVSS", "polyreactivity (PSR sort gate)": "high polyreactivity"}, {"sequence": "QDHLVESGGGLVQAGGSLRLSCAPSGSIFSYNSMGWYRQAPGKERELVAGISSDGSTNYADSVKGRFSISRDNAKNTVYLQMNSLKPEDTAVYYCAADEIVWQADLWGYGIYDYWGHGTQVTVSS", "polyreactivity (PSR sort gate)": "high polyreactivity"}, {"sequence": "QDQHVESAGGLVQAGGSLRLSCAASGRIFTINARGWYRQAPGKERELVAGISGRSGGTYYADSVKGRFTISRDNAKNTVYLEMNSLKPEDTAVYYCAGDDWYSTYFEFNYWGQGTQVTVSS", "polyreactivity (PSR sort gate)": "low polyreactivity"}, {"sequence": "QDQHVESGGGLLQAGGSLRLTCAAYGSIFTDYAMGWYRQPPGKERELVAAITRIGTRTYYADSVKGRFTISRDNAKNTVYLQMNSLKPEDTAVYYCAASGYSPVRWVWLYYWGQGTQVTVSS", "polyreactivity (PSR sort gate)": "high polyreactivity"}, {"sequence": "QDQHVESGGGLVQAGGSLRLICAASGFTFSHYPMGSYRQAPGKERELVAAINWSGGSTDYADSVKGRFTLSRDNAMNTVYLQMNSLKPVDTAVYYCNTVSYAYWGYYYWGQGTQVTLSS", "polyreactivity (PSR sort gate)": "high polyreactivity"}, {"sequence": "QDQHVESGGGLVQAGGSLRLSCAASGGIFQSYTMGRYRQAPGKEREFVAAITYSGGSTHYADSVKGRFTISRDKAKNTVYLQMNSLKPEDTAVYYCNADRYYGRGYGYWGQGTQVTVSS", "polyreactivity (PSR sort gate)": "low polyreactivity"}, {"sequence": "QDQHVESGGGLVQAGGSLRLSCAASGIIFTRNAMGWYRQAPGKERELVAVISWGGRTYYADSVKGRFTISRDNAKNTVYLQMNSLKPEDTAVYYCNARAPYPVGGRKGDYWGQGTQVTVSS", "polyreactivity (PSR sort gate)": "high polyreactivity"}, {"sequence": "QDQHVESGGGLVQAGGSLRLSCAASGIIFYDNTMGWYRQAPGKERELVASITWRGGSTYYADSVKGRFTISRDNAKNTVYLQMNSLKPEDTAVYYCNADSSDDYDYWGQGTQVTVSS", "polyreactivity (PSR sort gate)": "low polyreactivity"}, {"sequence": "QDQHVESGGGLVQAGGSLRLSCAASGRTFVPYAMGWYRQAPGKERELVATISRSGGRTNYADSVKGRFTISRDNAKNTVYIQMNSLKPEDTAVYYCAATGFLTWRHMYYWGQGTQVTVSS", "polyreactivity (PSR sort gate)": "high polyreactivity"}, {"sequence": "QDQHVESGGGLVQAGGSLRLSCAASVITYGRYVMGWDRQAPGKERELVAAITGSGGSTYYADSVKGRFTISRDNAKNTVYLQMNSLKAEDTAVYYCAAAGGYRFDYWGQGTQVTVSS", "polyreactivity (PSR sort gate)": "high polyreactivity"}, {"sequence": "QDQHVESGGGLVQAGGSLRLSCSASGRTFDYYAMGWYRQAPGKERELVAAINSGGNTYYADSVKGRFTISRDNAKNTVYLQMNSLKPEDTAVYYCAAYYRDKLSGYNYWGQGTQVTVSS", "polyreactivity (PSR sort gate)": "high polyreactivity"}]}]}
